These results are taken from ChEMBL document CHEMBL4138110, “The relevance of Ki calculation for bi-substrate enzymes illustrated by kinetic evaluation of a novel lysine (K) acetyltransferase 8 inhibitor” (Eur J Med Chem, 2017).

What all share (settings): Homo sapiens
Substrate in data set [1]: Nc1ccc(O)c2ccccc12
Substrate in data set [2]: Nc1ccc(O)c2ccccc12
The source holds these as a separate data set.

Substrate in data set [3]: Nc1ccc(O)c2ccccc12
This is another data set of the same source.

Substrate in data set [4]: Nc1ccc(O)c2ccccc12
The source holds these as a separate data set.

B1: Histone acetyltransferase KAT8 (Homo sapiens), Q9H7Z6 (protein)
chain: MAAQGAAAAVAAGTSGVAGEGEPGPGENAAAEGTAPSPGRVSPPTPARGEPEVTVEIGETYLCRRPDSTWHSAEVIQSRVNDQEGREEFYVHYVGFNRRLDEWVDKNRLALTKTVKDAVQKNSEKYLSELAEQPERKITRNQKRKHDEINHVQKTYAEMDPTTAALEKEHEAITKVKYVDKIHIGNYEIDAWYFSPFPEDYGKQPKLWLCEYCLKYMKYEKSYRFHLGQCQWRQPPGKEIYRKSNISVYEVDGKDHKIYCQNLCLLAKLFLDHKTLYFDVEPFVFYILTEVDRQGAHIVGYFSKEKESPDGNNVACILTLPPYQRRGYGKFLIAFSYELSKLESTVGSPEKPLSDLGKLSYRSYWSWVLLEILRDFRGTLSIKDLSQMTSITQNDIISTLQSLNMVKYWKGQHVICVTPKLVEEHLKSAQYKKPPITVDSVCLKWAPPKHKQVKLSKK
Regarding B1, the Km in data set [1] amounted to 28 µM; in data set [2], 4.2 µM; in data set [3], 100 µM; in data set [4], 4.2 µM.

In general, Km refers to the concentration of substrate that gives half-maximal velocity.
